For assay [1], the target named is T1, human TNFR1-Fc fusion protein (human, UniProt P19438 29-211).
T1 construct: range 29-211; Made in stably transfected HEK293 cells; coated on ELISA plates or immobilised on QCM chips; also called huTNFR1-Fc; human TNFR-Fc; not shown: Fc part from vector pSecTagL1-Fc
T1 sequence (looked up): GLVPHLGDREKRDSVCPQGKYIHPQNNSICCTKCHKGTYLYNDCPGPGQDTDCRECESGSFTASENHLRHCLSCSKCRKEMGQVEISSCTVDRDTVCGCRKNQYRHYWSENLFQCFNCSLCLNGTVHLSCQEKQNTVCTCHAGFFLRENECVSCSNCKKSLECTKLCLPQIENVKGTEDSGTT
As to the kind of experiment: ELISA, human TNFR1-Fc.

The target of assay [2] is T2, human TNFR1 on cells (HT1080, HeLa, Kym-1) (human, UniProt P19438 30-455).
T2 sequence (looked up): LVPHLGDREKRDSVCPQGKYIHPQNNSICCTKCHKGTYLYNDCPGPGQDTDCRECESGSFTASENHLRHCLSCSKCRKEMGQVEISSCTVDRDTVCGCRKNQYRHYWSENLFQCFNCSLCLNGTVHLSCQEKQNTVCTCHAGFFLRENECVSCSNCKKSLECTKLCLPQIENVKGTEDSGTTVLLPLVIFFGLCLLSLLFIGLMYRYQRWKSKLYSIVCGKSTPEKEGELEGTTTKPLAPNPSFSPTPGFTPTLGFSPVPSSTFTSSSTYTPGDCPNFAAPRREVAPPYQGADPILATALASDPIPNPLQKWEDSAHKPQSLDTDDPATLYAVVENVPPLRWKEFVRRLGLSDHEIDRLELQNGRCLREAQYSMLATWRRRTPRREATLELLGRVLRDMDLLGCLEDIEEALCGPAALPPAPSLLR
Nature of the assay: cell-based or functional assay.

In assay [3] the target is T1, human TNFR1-Fc fusion protein. Nature of the assay: QCM, soluble scFv, moderate receptor density. As to the method: (§1) Real-time binding dynamics in protein-protein interactions were determined by quartz crystal microbalance measurements (A-100 C-Fast or Cell-200 C-Fast, Attana, Stockholm, Sweden). One of the binding partners (ligand, e.g. TNFR1-Fc) was chemically immobilized on a carboxyl sensor chip according to the manufacturer's protocol at different densities (nearly 200 Hz in the case of saturating conditions to confirm previously published results and 50-100 Hz, in particular at about 50 Hz, to establish conditions of lower receptor density, better resembling the situation on the cellular surface). Binding experiments were performed with samples (analyte) diluted in PBST (PBS, 0.1% Tween 20) at pH 7.4 with a flow rate of 25 µl/min at 37° C. The chip was regenerated with 25 µl 5 mM NaOH or 20 mM glycine, pH 2.0. Every third measurement, an injection of running buffer was measured which was subtracted from the binding curve. Data were collected using the software provided by Attana for the particular device and analyzed by Attaché Office Evaluation software (Attana, Stockholm, Sweden) and TraceDrawe (ridgview instruments, Vange, Sweden).

The target is the same in assay [4]. As to the kind of experiment: QCM, human TNFR1-Fc immobilised. As to the method:
as §1

Assay [5] shares this target. As to the kind of experiment: QCM.
Assay [6] has the same target. As to the kind of experiment: QCM, human TNFR1-Fc immobilised, low receptor density (48 Hz). How it is done: as §1
For assay [7] the target is unchanged. Nature of the assay: standard ELISA, human TNFR1-Fc. How it is done: (§2) FIG. 1. […] Applied were triplicates of five concentrations between 3.9 nM and 62.5 nM.
Microtiter plates were coated with 100 µl of the indicated protein (1 µg/ml in PBS, see Table 3.3) and incubated at 4° C. over night. The residual binding sites were blocked with 2% MPBS (skim milk in PBS, 200 µl per well) at room temperature for 2 hours and subsequently washed twice with PBS. 100 µl of the samples diluted in 2% MPBS were incubated at room temperature for 1 hour prior to the last incubation step with 100 µl of the HRP conjugated detection antibodies in 2% MPBS. In the case of competition experiments, both analyzed protein samples were prepared individually (either titrated or diluted to a single concentration) and mixed before they were applied to the plate. Bound protein was detected with 100 µl TMB substrate solution, the HRP-reaction was stopped by the addition of 50 µl 1 M H2SO4 and the absorption at the wavelength of 450 nm was measured using the Infinite microtiter plate reader (TECAN, Maennedorf, Switzerland). Between each incubation step and in advance of the detection, the plates were washed three times with PBST and twice with PBS.
A general note: ELISA stands for enzyme-linked immunosorbent assay.

Assay [8] addresses T2, human TNFR1 on cells (HT1080, HeLa, …). Nature of the assay: cell-based or functional assay. The source holds these as a separate data set.
Assay [9] concerns the target T1, human TNFR1-Fc fusion protein. As to the kind of experiment: QCM, human TNFR1-Fc immobilised, high receptor density (195 Hz). As to the method:
as §2, §1

Assay [10] deals with T2, human TNFR1 on cells (HT1080, HeLa, …). As to the kind of experiment: cell-based or functional assay. The source holds these as a separate data set.
The target is the same in assay [11]. As to the kind of experiment: cell-based or functional assay. This is another data set of the same source.
Assay [12] concerns the target T1, human TNFR1-Fc fusion protein. As to the kind of experiment: ELISA, immobilised human TNFR1-Fc.
Assay [13] shares this target. Nature of the assay: ELISA, immobilised human TNFR1-Fc. This is another data set of the same source.
For assay [14] the target is unchanged. Nature of the assay: ELISA, human TNFR1-Fc. This is another data set of the same source.
Assay [15] addresses T2, human TNFR1 on cells (HT1080, HeLa, …). As to the kind of experiment: cell-based or functional assay. This is another data set of the same source.
The target in assay [16] is T1, human TNFR1-Fc fusion protein. As to the kind of experiment: phage ELISA on human TNFR1.

Residue numbers refer to the chain shown, from its start.

B1: scFvIG11 (scFv, V domains shown)
VH: QVQLVQSGAEVKKPGSSVKVSCKASGYTFTDFYINWVRQAPGQGLEWIGEIVPTQGEAKYNDKFKARVTITADKSTSTAYMELSSLRSEDTAVYYCARWDFLDYWGQGTTVTVSS
VL: DIVMTQSPLSLPVTPGEPASISCRSSQSLLHSNGNTYLHWYLQKPGQSPQLLIYTVSNRFSGVPDRFSGSGSGTDFTLKISRVEAEDVGVYYCSQSTHVPYTFGGGTKVEIK
B1: the 50% effective concentration (EC50) in [1] came out at 2.6 nM. For the same molecule, the “IC50 (nM), approximated; inhibition of TNF (0.1 nM) induced IL-8 release” value (“IC50 (nM), approximated; inhibition” below) in assay [2] is roughly 300 nM. In assay [3], the “relative koff (compared with scFvIZI06.1)” value (“relative koff” for short) is 0.31 relative to scFvIZI06.1. In assay [4], this molecule yielded a Kd of 24.9 nM, a koff of 0.0036 s⁻¹ and an on-rate constant (kon) of 150000 M⁻¹ s⁻¹. In assay [5], the “fold KD compared with scFvIZI06.1” value was 2 fold, the “fold reduced koff compared with scFvIZI06.1” value is roughly 3 fold and the koff came to 0.00026 s⁻¹.

B2: H398 (antibody, V domains shown)
VH: QVQLQESGAELARPGASVKLSCKASGYTFTDFYINWVKQRTGQGLEWIGEIYPYSGHAYYNEKFKAKATLTADKSSSTAFMQLNSLTSEDSAVYFCVRWDFLDYWGQGTTLTVSS
VL: B1 VL with T14S, P15L, E17D, P18Q, L42V, Q50K, V88L, Y92F, V109L
In [6], B2 came in with a Kd of 1.6 nM and a koff of 0.00062 s⁻¹. Further, the midpoint of the response in assay [7], the EC50, lay at 0.15 nM. In assay [8], the “IC50, LT [nM] (inhibition of IL-8 release from HT1080 cells induced by LTα)” value stood at 0.65 nM and the “IC50, TNF [nM] (inhibition of IL-8 release from HT1080 cells induced by 0.1 nM TNF)” value was found to be 4.1 nM. The Kd in assay [9] is 0.23 nM.

B3: IgG13.7half (antibody, V domains shown)
VH: B1 VH with Q1H, T54S
VL: DVQMTQSPSSLSASVGDRVTITCRSSQSLLHSNGNTYLHWYQQKPGKAPKLLIYTVSNRFSGVPSRFSGSGSGTDFTLTISSLQPEDFATYYCSQSTHVPYTFGGGTKVEIKR
notes: Monovalent half IgG1
Consider B3, for which the “IL-8 Inhibition IC50 [nM] (HT1080 cells, 0.1 nM soluble TNF)” value in assay [10] is 63.3 nM. Moreover, the “fold higher IC50 (IL-8 release inhibition) compared to Fab13.7” value in assay [11] was found to be 1.8 fold. This molecule returned an EC50 in assay [12] of 0.8 nM. Moreover, the “fold increased EC50 compared to unmodified Fab13.7” value in assay [13] amounted to 1.9 fold.

B4: scFvT12B (scFv, V domains shown)
VH: B1 VH with Q1H, T54S
VL: B1 VL with S96G
With B4, in [1], the concentration giving a half-maximal response (EC50) was found to be 2 nM and the “Improved (factor of EC50 regarding scFvIG11)” value was 1.3 fold. For the same molecule, in assay [2], the “IC50 (nM), approximated; inhibition” value is roughly 45 nM and the “Improved (factor of IC50 regarding scFvIG11)” value is roughly 6.7 fold. The “relative koff” value in assay [3] is 0.25 relative to scFvIZI06.1. In assay [14], this molecule had a concentration giving a half-maximal response (EC50) of 1.14 nM. Also, the “IC50 (nM), inhibition of TNF-induced IL-8 release from HT1080 cells” value in assay [15] was 309 nM. Moreover, in [4], the “Improved (factor of KD regarding scFvIG11)” value came to 4.1 fold, the “Improved (factor of koff regarding scFvIG11)” value was found to be 2 fold and the “Improved (factor of kon regarding scFvIG11)” value stood at 2.1 fold. The “relative EC50 (compared with scFvIZI06.1)” value in [16] is 0.017 relative to scFvIZI06.1.

B5: scFvIZI06.1 (scFv, V domains shown)
VH: B1 VH with V52Y, T54Y, Q55S, E57H, K59Y, D62E
VL: B1 VL
notes: Made in the periplasm of E. coli TG1; also called ATROSAB scFv
Consider B5, for which the concentration for a half-maximal effect (EC50) in assay [1] stood at 3.8 nM. Also, in assay [2], the “IC50 (nM), approximated; inhibition” value is roughly 200 nM. For the same molecule, the “relative koff” value in assay [3] was 1 relative to scFvIZI06.1. Moreover, in assay [14], the EC50 is 3.07 nM. Moreover, in assay [15], the “IC50 (nM), inhibition of TNF-induced IL-8 release from HT1080 cells” value turned out to be 932 nM. In assay [4], this molecule showed an equilibrium dissociation constant (Kd) of 28.9 nM, an off-rate (koff) of 0.014 s⁻¹ and a kon of 500000 M⁻¹ s⁻¹. This molecule came in with a dissociation rate constant (koff) in assay [5] of 0.00076 s⁻¹. Besides, the “relative EC50 (compared with scFvIZI06.1)” value in assay [16] is 1 relative to scFvIZI06.1.

B6: Fab13.7-MSA (Fab)
heavy: HVQLVQSGAEVKKPGSSVKVSCKASGYTFTDFYINWVRQAPGQGLEWIGEIVPSQGEAKYNDKFKARVTITADKSTSTAYMELSSLRSEDTAVYYCARWDFLDYWGQGTTVTVSSASTKGPSVFPLAPSSKSTSGGTAALGCLVKDYFPEPVTVSWNSGALTSGVHTFPAVLQSSGLYSLSSVVTVPSSSLGTQTYICNVNHKPSNTKVDKKVEPKSCGGGGSGGGGSSLEAHKSEIAHRYNDLGEQHFKGLVLIAFSQYLQKCSYDEHAKLVQEVTDFAKTCVADESAANCDKSLHTLFGDKLCAIPNLRENYGELADCCTKQEPERNECFLQHKDDNPSLPPFERPEAEAMCTSFKENPTTFMGHYLHEVARRHPYFYAPELLYYAEQYNEILTQCCAEADKESCLTPKLDGVKEKALVSSVRQRMKCSSMQKFGERAFKAWAVARLSQTFPNADFAEITKLATDLTKVNKECCHGDLLECADDRAELAKYMCENQATISSKLQTCCDKPLLKKAHCLSEVEHDTMPADLPAIAADFVEDQEVCKNYAEAKDVFLGTFLYEYSRRHPDYSVSLLLRLAKKYEATLEKCCAEANPPACYGTVLAEFQPLVEEPKNLVKTNCDLYEKLGEYGFQNAILVRYTQKAPQVSTPTLVEAARNLGRVGTKCCTLPEDQRLPCVEDYLSAILNRVCLLHEKTPVSEHVTKCCSGSLVERRPCFSALTVDETYVPKEFKAETFTFHSDICTLPEKEKQIKKQTALAELVKHKPKATAEQLKTVMDDFAQFLDTCCKAADKDTCFSTEGPNLVGGAAAHHHHHH
light: DVQMTQSPSSLSASVGDRVTITCRSSQSLLHSNGNTYLHWYQQKPGKAPKLLIYTVSNRFSGVPSRFSGSGSGTDFTLTISSLQPEDFATYYCSQSTHVPYTFGGGTKVEIKRTVAAPSVFIFPPSDEQLKSGTASVVCLLNNFYPREAKVQWKVDNALQSGNSQESVTEQDSKDSTYSLSSTLTLSKADYEKHKVYACEVTHQGLSSPVTKSFNRGEC
notes: also called Fab13.7 MSA fusion protein
Turning to B6, in assay [10], the “IL-8 Inhibition IC50 [nM] (HT1080 cells, 0.1 nM soluble TNF)” value was 65.5 nM. The “fold higher IC50 (IL-8 release inhibition) compared to Fab13.7” value in assay [11] is 1.9 fold. In assay [12], this molecule registered an EC50 of 0.7 nM. Further, the “fold increased EC50 compared to unmodified Fab13.7” value in assay [13] came to 1.7 fold.

Broadly, the EC50 is the concentration that produces a half-maximal response. The low end stands for higher potency in that assay, the high end for lower potency in that assay. Broadly, the Kd is the concentration at which binding is half-saturated. For orientation: koff means the rate constant with which the complex falls apart. Low values mean a long-lived complex, high ones a short-lived complex. Broadly, the kon is the second-order rate constant of association. A high value points to fast association.

The values above are taken from patent US10689452 (UNIVERSIT T STUTTGART, dated 2020).
